The target in this experiment is FcγRIIIa on NK cells of V/F donors (both aa158 allotypes, V and F) (human). Kind of experiment: cell-based or functional assay.

As for monoclonal antibody CHIR-12.12, the ED50 for lysis of the Daudi cell line (ADCC, purified NK cells, V/F donors) turned out to be 0.002 nM. Then rituximab (Rituxan) (antibody), with 0.021 nM.

Source of the values: patent publication US20090117111A1.
